# Measurements published in publication PMC4234410.
# Target: Gallus gallus laforin (Gallus gallus) (UniProt Q5ZL46)
# Experiment: SEC; first pass over a HiLoad 16/60 Superdex 200 column after IMAC and tag removal; buffer C (20 mM Tris/HCl pH 7.5, 100 mM NaCl, 2 mM DTT); multimer peak, dimer and monomer species seen
substance,measurement,value
Gallus gallus laforin (from UniProt Q5ZL46 1-319) (enzyme),stoichiometry N,2
